Measured values published in US20070105771A1 (Y S THERAPEUTICS, published 2007).

Assays:
Test in all cases: peptide microarray
[1] = molecular target: T1, human CD26-derived 13 mer peptide 73 (human)
T1 peptide: DIIYNGITDWVYE
Protocol: (§1) The overnight incubation was followed by three washings with each of PBS buffer pH 7.5 and water. The microarrays were then scanned using ArrayWorx-Microarray Scanner.
(§2) The SPOT recognition software package ArrayPro was used for data analysis. The mean of signal intensities from 3 identical subarrays on each microarray image was used for data evaluation.

[2] = molecular target: T2, human CD26-derived 13 mer peptide 23 (human)
T2 peptide: NSTFDEFGHSIND
Protocol: as §1, §2

[3] = molecular target: T3, human CD26-derived 13 mer peptide 115 (human)
T3 peptide: LSSVTNATSIQIT
Protocol: as §1, §2

[4] = molecular target: T4, human CD26-derived 13 mer peptide 114 (human)
T4 peptide: DSLSSVTNATSIQ
Protocol: as §1, §2

[5] = molecular target: T5, human CD26-derived 13 mer peptide 36 (human)
T5 peptide: YNYVKQWRHSYTA
Protocol: as §1, §2

[6] = molecular target: T6, human CD26-derived 13 mer peptide 103 (human)
T6 peptide: VRVPYPKAGAVNP
Protocol: as §1, §2

[7] = molecular target: T7, human CD26-derived 13 mer peptide 75 (human)
T7 peptide: NGITDWVYEEEVF
Protocol: as §1, §2

[8] = molecular target: T8, human CD26-derived 13 mer peptide 20 (human)
T8 peptide: SSVFLENSTFDEF
Protocol: as §1, §2

[9] = molecular target: T9, human CD26-derived 13 mer peptide 102 (human)
T9 peptide: KTVRVPYPKAGAV
Protocol: as §1, §2

[10] = molecular target: T10, human CD26-derived 13 mer peptide 37 (human)
T10 peptide: YVKQWRHSYTASY
Protocol: as §1, §2

[11] = molecular target: T11, human CD26-derived 13 mer peptide 123 (human)
T11 peptide: SMLIGDHYLCDVT
Protocol: as §1, §2

[12] = molecular target: T12, human CD26-derived 13 mer peptide 34 (human)
T12 peptide: ILLEYNYVKQWRH
Protocol: as §1, §2

[13] = molecular target: T13, human CD26-derived 13 mer peptide 7 (human)
T13 peptide: LRWISDHEYLYKQ
Protocol: as §1, §2

[14] = molecular target: T14, human CD26-derived 13 mer peptide 119 (human)
T14 peptide: SIQITAPASMLIG
Protocol: as §1, §2

[15] = molecular target: T15, human CD26-derived 13 mer peptide 98 (human)
T15 peptide: SDESLQYPKTVRV
Protocol: as §1, §2

[16] = molecular target: T16, human CD26-derived 13 mer peptide 17 (human)
T16 peptide: NAEYGNSSVFLEN
Protocol: as §1, §2

[17] = molecular target: T17, human CD26-derived 13 mer peptide 45 (human)
T17 peptide: DLNKRQLITEERI
Protocol: as §1, §2

[18] = molecular target: T18, human CD26-derived 13 mer peptide 72 (human)
T18 peptide: KEDIIYNGITDWV
Protocol: as §1, §2

[19] = molecular target: T19, human CD26-derived 13 mer peptide 116 (human)
T19 peptide: SVTNATSIQITAP
Protocol: as §1, §2

[20] = molecular target: T20, human CD26-derived 13 mer peptide 27 (human)
T20 peptide: HSINDYSISPDGQ
Protocol: as §1, §2

[21] = molecular target: T21, human CD26-derived 13 mer peptide 133 (human)
T21 peptide: SLQWLRRIQNYSV
Protocol: as §1, §2

[22] = molecular target: T22, human CD26-derived 13 mer peptide 122 (human)
T22 peptide: PASMLIGDHYLCD
Protocol: as §1, §2

[23] = molecular target: T23, human CD26-derived 13 mer peptide 62 (human)
T23 peptide: NDIYVKIEPNLPS
Protocol: as §1, §2

[24] = molecular target: T24, human CD26-derived 13 mer peptide 109 (human)
T24 peptide: PTVKFFVVNTDSL
Protocol: as §1, §2

[25] = molecular target: T25, human CD26-derived 13 mer peptide 67 (human)
T25 construct: also called LPSYRITWTGKED
T25 peptide: LPSYRITWTGKED
Protocol: as §1, §2

[26] = molecular target: T26, human CD26-derived 13 mer peptide 77 (human)
T26 peptide: DWVYEEEVFSAYS
Protocol: as §1, §2

[27] = molecular target: T27, human CD26-derived 13 mer peptide 78 (human)
T27 construct: also called VYEEEVFSAYSAL
T27 peptide: VYEEEVFSAYSAL
Protocol: as §1, §2

[28] = molecular target: T28, human CD26-derived 13 mer peptide 39 (human)
T28 peptide: WRHSYTASYDIYD
Protocol: as §1, §2

[29] = molecular target: T29, human CD26-derived 13 mer peptide 128 (human)
T29 peptide: DVTWATQERISLQ
Protocol: as §1, §2

[30] = molecular target: T30, human CD26-derived 13 mer peptide 59 (human)
T30 peptide: LAYVWNNDIYVKI
Protocol: as §1, §2

[31] = molecular target: T31, human CD26-derived 13 mer peptide 87 (human)
T31 peptide: GTFLAYAQFNDTE
Protocol: as §1, §2

[32] = molecular target: T32, human CD26-derived 13 mer peptide 129 (human)
T32 peptide: TWATQERISLQWL
Protocol: as §1, §2

[33] = molecular target: T33, human CD26-derived 13 mer peptide 50 (human)
T33 peptide: ERIPNNTQWVTWS
Protocol: as §1, §2

[34] = molecular target: T34, human CD26-derived 13 mer peptide 2 (human)
T34 peptide: KNTYRLKLYSLRW
Protocol: as §1, §2

[35] = molecular target: T35, human CD26-derived 13 mer peptide 54 (human)
T35 peptide: WVTWSPVGHKLAY
Protocol: as §1, §2

[36] = molecular target: T36, human CD26-derived 13 mer peptide 18 (human)
T36 peptide: EYGNSSVFLENST
Protocol: as §1, §2

[37] = molecular target: T37, human CD26-derived 13 mer peptide 100 (human)
T37 peptide: LQYPKTVRVPYPK
Protocol: as §1, §2

[38] = molecular target: T38, human CD26-derived 13 mer peptide 47 (human)
T38 peptide: RQLITEERIPNNT
Protocol: as §1, §2

[39] = molecular target: T39, human CD26-derived 13 mer peptide 57 (human)
T39 peptide: VGHKLAYVWNNDI
Protocol: as §1, §2

[40] = molecular target: T40, human CD26-derived 13 mer peptide 110 (human)
T40 peptide: VKFFVVNTDSLSS
Protocol: as §1, §2

[41] = molecular target: T41, human CD26-derived 13 mer peptide 113 (human)
T41 peptide: NTDSLSSVTNATS
Protocol: as §1, §2

[42] = molecular target: T42, human CD26-derived 13 mer peptide 86 (human)
T42 peptide: PNGTFLAYAQFND
Protocol: as §1, §2

- Mean Signal Value [1]: 33.6
- Mean Signal Value [2]: 0.00481
- Mean Signal Value [3]: 0.0673
- Mean Signal Value [4]: 0.00481
- Mean Signal Value [5]: 28.2
- Mean Signal Value [6]: 0
- Mean Signal Value [7]: 9.38
- Mean Signal Value [8]: 0.0577
- Mean Signal Value [9]: 0.0192
- Mean Signal Value [10]: 98.2
- Mean Signal Value [11]: 0.438
- Mean Signal Value [12]: 15.7
- Mean Signal Value [13]: 20.6
- Mean Signal Value [14]: 0.024
- Mean Signal Value [15]: 0.00481
- Mean Signal Value [16]: 0.0625
- Mean Signal Value [17]: 0
- Mean Signal Value [18]: 10.1
- Mean Signal Value [19]: 0.0385
- Mean Signal Value [20]: 0.00481
- Mean Signal Value [21]: 6.51
- Mean Signal Value [22]: 0.308
- Mean Signal Value [23]: 0.00481
- Mean Signal Value [24]: 0
- Mean Signal Value [25]: 0.00962
- Mean Signal Value [26]: 13.7
- Mean Signal Value [27]: 7.86
- Mean Signal Value [28]: 55.7
- Mean Signal Value [29]: 0.106
- Mean Signal Value [30]: 0.683
- Mean Signal Value [31]: 0.0288
- Mean Signal Value [32]: 23.3
- Mean Signal Value [33]: 34.6
- Mean Signal Value [34]: 16.5
- Mean Signal Value [35]: 13
- Mean Signal Value [36]: 0
- Mean Signal Value [37]: 0.00962
- Mean Signal Value [38]: 0
- Mean Signal Value [39]: 9.67
- Mean Signal Value [40]: 0.024
- Mean Signal Value [41]: 0.0288
- Mean Signal Value [42]: 0.524
B1: rhuMAb 411 (antibody, human IgG1, kappa, V domains shown)
VH: EVQLVESGAGVKQPGGTLRLTCTASGFSLTTYGVHWVRQAPGKGLEWVGVIWGDGRTDYDAAFMSRVTISKDTSKSTVYLQMNSLRAEDTAVYYCMRNRHDWFDYWGQGTTVTVSS
VL: DILLTQSPSSLSATPGERATITCRASQGIRNNLNWYQQKPGQAPRLLIYYSSNLQSGVPSRFSGSGSGTDFTLTISRLQPEDVAAYYCQQSIKLPFTFGSGTKVEIKR
notes: also called X411
